In the supplement of paper PMC11316812:
± gives the standard deviation of the averaged measurements.

Assays:
MCF7 = assay: percentage of EdU-negative (G0-arrested) nuclei per well, 72 h; higher = more G0 arrest; settings: reference: sequence is the full UniProt precursor, the tested protein was the secreted form or ectodomain
hTERT-HMEC = assay: as above; settings: reference: sequence is the full UniProt precursor, the tested protein was the secreted form or ectodomain
[1] = protein concentration 0.0225 µM
[2] = protein concentration 0.03125 µM
[3] = protein concentration 0.3125 µM
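Further: secreted proteins added to cultured cells, EdU pulse at the end, nuclei found by Hoechst imaging, EdU status from nuclear versus surrounding ring intensity ratio, PBS as neutral control.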

| Sequence | percentage of EdU-negative (MCF7; [1]) [%] | percentage of EdU-negative (MCF7; protein concentration 0.225 µM) [%] | percentage of EdU-negative (hTERT-HMEC; [1]) [%] | percentage of EdU-negative (hTERT-HMEC; protein concentration 0.225 µM) [%] | also measured |
| --- | --- | --- | --- | --- | --- |
| MLRAGWLRGAAALALLLAARVVAAFEPITVGLAIGAASAITGYLSYNDIYCRFAECCREERPLNASALKLDLEEKLFGQHLATEVIFKALTGFRNNKNPKKPLTLSLHGWAGTGKNFVSQIVAENLHPKGLKSNFVHLFVSTLHFPHEQKIKLYQDQLQKWIRGNVSACANSVFIFDEMDKLHPGIIDAIKPFLDYYEQVDGVSYRKAIFIFLSNAGGDLITKTALDFWRAGRKREDIQLKDLEPVLSVGVFNNKHSGLWHSGLIDKNLIDYFIPFLPLEYRHVKMCVRAEMRARGSAIDEDIVTRVAEEMTFFPRDEKIYSDKGCKTVQSRLDFH |  |  |  |  | percentage of EdU-negative (MCF7; protein concentration 0.005 µM): 27.8 ± 1%; percentage of EdU-negative (MCF7; protein concentration 0.05 µM): 24.9 ± 1.3%; percentage of EdU-negative (hTERT-HMEC; protein concentration 0.005 µM): 5.1 ± 0.71%; percentage of EdU-negative (hTERT-HMEC; protein concentration 0.05 µM): 6.38 ± 0.16% |
| MARAMAAAWPLLLVALLVLSWPPPGTGDVVVQAPTQVPGFLGDSVTLPCYLQVPNMEVTHVSQLTWARHGESGSMAVFHQTQGPSYSESKRLEFVAARLGAELRNASLRMFGLRVEDEGNYTCLFVTFPQGSRSVDIWLRVLAKPQNTAEVQKVQLTGEPVPMARCVSTGGRPPAQITWHSDLGGMPNTSQVPGFLSGTVTVTSLWILVPSSQVDGKNVTCKVEHESFEKPQLLTVNLTVYYPPEVSISGYDNNWYLGQNEATLTCDARSNPEPTGYNWSTTMGPLPPFAVAQGAQLLIRPVDKPINTTLICNVTNALGARQAELTVQVKEGPPSEHSGISRNAIIFLVLGILVFLILLGIGIYFYWSKCSREVLWHCHLCPSSTEHASASANGHVSYSAVSRENSSSQDPQTEGTR [A0A0C4DG49] | 23.8 ± 1.6 | 26.1 ± 2.5 | 4.71 ± 0.025 | 10.7 ± 2.4 |  |
| MALPFVLLMALVVLNCKSICSLGCDLPQTHSLSNRRTLMIMAQMGRISPFSCLKDRHDFGFPQEEFDGNQFQKAQAISVLHEMIQQTFNLFSTKDSSATWDETLLDKFYTELYQQLNDLEACMMQEVGVEDTPLMNVDSILTVRKYFQRITLYLTEKKYSPCAWEVVRAEIMRSFSLSANLQERLRRKE |  |  |  |  | percentage of EdU-negative (MCF7; [2]): 45.45 ± 0.21%; percentage of EdU-negative (MCF7; [3]): 48.29 ± 0.24%; percentage of EdU-negative (hTERT-HMEC; [2]): 22.9 ± 1.4%; percentage of EdU-negative (hTERT-HMEC; [3]): 28.6 ± 0.61% |
| MMGLFPRTTGALAIFVVVILVHGELRIETKGQYDEEEMTMQQAKRRQKREWVKFAKPCREGEDNSKRNPIAKITSDYQATQKITYRISGVGIDQPPFGIFVVDKNTGDINITAIVDREETPSFLITCRALNAQGLDVEKPLILTVKILDINDNPPVFSQQIFMGEIEENSASNSLVMILNATDADEPNHLNSKIAFKIVSQEPAGTPMFLLSRNTGEVRTLTNSLDREQASSYRLVVSGADKDGEGLSTQCECNIKVKDVNDNFPMFRDSQYSARIEENILSSELLRFQVTDLDEEYTDNWLAVYFFTSGNEGNWFEIQTDPRTNEGILKVVKALDYEQLQSVKLSIAVKNKAEFHQSVISRYRVQSTPVTIQVINVREGIAFRPASKTFTVQKGISSKKLVDYILGTYQAIDEDTNKAASNVKYVMGRNDGGYLMIDSKTAEIKFVKNMNRDSTFIVNKTITAEVLAIDEYTGKTSTGTVYVRVPDFNDNCPTAVLEKDAVCSSSPSVVVSARTLNNRYTGPYTFALEDQPVKLPAVWSITTLNATSALLRAQEQIPPGVYHISLVLTDSQNNRCEMPRSLTLEVCQCDNRGICGTSYPTTSPGTRYGRPHSGRLGPAAIGLLLLGLLLLLLAPLLLLTCDCGAGSTGGVTGGFIPVPDGSEGTIHQWGIEGAHPEDKEITNICVPPVTANGADFMESSEVCTNTYARGTAVEGTSGMEMTTKLGAATESGGAAGFATGTVSGAASGFGAATGVGICSSGQSGTMRTRHSTGGTNKDYADGAISMNFLDSYFSQKAFACAEEDDGQEANDCLLIYDNEGADATGSPVGSVGCCSFIADDLDDSFLDSLGPKFKKLAEISLGVDGEGKEVQPPSKDSGYGIESCGHPIEVQQTGFVKCQTLSGSQGASALSTSGSVQPAVSIPDPLQHGNYLVTETYSASGSLVQPSTAGFDPLLTQNVIVTERVICPISSVPGNLAGPTQLRGSHTMLCTEDPCSRLI | 27.7 ± 0.58 | 33.34 ± 0.16 | 4.88 ± 0.17 | 13.7 ± 2.7 |  |
| MKFTTLLFLAAVAGALVYAEDASSDSTGADPAQEAGTSKPNEEISGPAEPASPPETTTTAQETSAAAVQGTAKVTSSRQELNPLKSIVEKSILLTEQALAKAGKGMHGGVPGGKQFIENGSEFAQKLLKKFSLLKPWA [Q9GZZ8] | 25.6 ± 1.3 | 24.5 ± 0.39 | 4.93 ± 0.13 | 5.83 ± 0.8 |  |
| MKRLVCVLLVCSSAVAQLHKDPTLDHHWHLWKKTYGKQYKEKNEEAVRRLIWEKNLKFVMLHNLEHSMGMHSYDLGMNHLGDMTSEEVMSLMSSLRVPSQWQRNITYKSNPNRILPDSVDWREKGCVTEVKYQGSCGACWAFSAVGALEAQLKLKTGKLVSLSAQNLVDCSTEKYGNKGCNGGFMTTAFQYIIDNKGIDSDASYPYKAMDQKCQYDSKYRAATCSKYTELPYGREDVLKEAVANKGPVSVGVDARHPSFFLYRSGVYYEPSCTQNVNHGVLVVGYGDLNGKEYWLVKNSWGHNFGEEGYIRMARNKGNHCGIASFPSYPEI | 25.8 ± 0.69 | 28.92 ± 0.25 | 4.72 ± 0.47 | 9.97 ± 2.1 |  |
| MALGVPISVYLLFNAMTALTEEAAVTVTPPITAQQGNWTVNKTEADNIEGPIALKFSHLCLEDHNSYCINGACAFHHELEKAICRCFTGYTGERCEHLTLTSYAVDSYEKYIAIGIGVGLLLSGFLVIFYCYIRKRCLKLKSPYNVCSGERRPL |  |  |  |  | percentage of EdU-negative (MCF7; [2]): 26.2 ± 0.87%; percentage of EdU-negative (MCF7; [3]): 27 ± 2.6%; percentage of EdU-negative (hTERT-HMEC; [2]): 5.25 ± 0.34%; percentage of EdU-negative (hTERT-HMEC; [3]): 5.12 ± 0.77% |
